Drawing on publication PMC10904049, this text covers Kd for 17 substances.

In one assay the target is CaVβ4 (UniProt D4A055). As to the kind of experiment: ITC. Particulars: cited from earlier work.
Assay [1] deals with Cerulean-tagged CaVβ2B subunit (Cerulean-WT β2B). As to the kind of experiment: flow cytometric FRET assay. Conditions: HEK293 cells, read off a plot. (A flow cytometer gives signals particle by particle.)
The mark [2] stands for this setting: FSK (10 µM) + Cal (100 nM), parent: est. 100.
Setting [3] is: no FSK, no Cal, parent: est. 7.8.

The term Kd denotes the concentration at which binding is half-saturated. As to Rem2 (from UniProt Q9WTY2), in the assay with CaVβ4, the dissociation constant Kd is 156 µM.
As to “Venus-tagged WT Rad (from UniProt O88667) S25D; S38D; S272D; S300D”, in assay [1] (no FSK/Cal, parent: est. 7.8), the Kd is 18 ×10^3.
In the case of “Venus-tagged WT Rad (from UniProt O88667) R208A; L235A”, the equilibrium dissociation constant (Kd) in assay [1] (parent: est. 8) was 140 ×10^3.
Take “Venus-Rad-CAAX (WT Rad with a C-terminal CAAX motif) (from UniProt O88667) S272D; S300D”: the Kd in assay [1] (no FSK/Cal, parent: est. 9.3) was 12 ×10^3.
Turning to “Venus-tagged WT Rad (from UniProt O88667) S25A; S38A”, the Kd was 44 ×10^3 in assay [1] (setting [2]) and 7.5 ×10^3 in assay [1] (setting [3]).
With “Venus-tagged WT Rad (from UniProt O88667) S272D; S289D; S298D; S300D”, the Kd in assay [1] (no FSK/Cal, parent: est. 7.8) is 57 ×10^3.
Same read-out and setting: under “Venus-tagged WT Rad (from UniProt O88667) S25D; S38D” stands 9.2 ×10^3; under “Venus-tagged WT Rad (from UniProt O88667) S256D; S272D; S289D; S298D; S300D; S305D”, 83 ×10^3.
For “Venus-Rad-CAAX (WT Rad with a C-terminal CAAX motif) (from UniProt O88667) S256D; S272D; S289D; S298D; S300D; S305D”, the Kd in assay [1] (no FSK/Cal, parent: est. 9.3) is 12 ×10^3.
Same read-out and setting: next, “Venus-Rad-CAAX (WT Rad with a C-terminal CAAX motif) (from UniProt O88667) S272D; S289D; S298D; S300D”: 11 ×10^3.
In the case of “Venus-Rad-CAAX (WT Rad with a C-terminal CAAX motif) (from UniProt O88667) R208A; L235A”, the equilibrium dissociation constant (Kd) in assay [1] is 140 ×10^3.
With “Venus-tagged WT Rad (from UniProt O88667) S25A; S38A; S272A; S300A”, the Kd is 14 ×10^3 in assay [1] (Cal (100 nM), no FSK); 13 ×10^3 in assay [1] (setting [2]); 11 ×10^3 in assay [1] (FSK (10 µM), no Cal); 11 ×10^3 in assay [1] (setting [3]).
Take “Venus-tagged WT Rad (from UniProt O88667) F280A; F294A”: the Kd is 190 ×10^3 in assay [1] (+ FSK + Cal, parent: est. 100) and 41 ×10^3 in assay [1] (no FSK + Cal, parent: est. 8).
For “Venus-tagged WT Rad (from UniProt O88667) S25D; T26D; S38D; M39D”, the Kd in assay [1] (no FSK/Cal, parent: est. 7.8) was 5.7 ×10^3.
For “Venus-tagged WT Rad (from UniProt O88667) S272A; S300A”, the dissociation constant Kd in assay [1] (setting [2]) is 17 ×10^3; in assay [1] (setting [3]) it was 6.3 ×10^3.
“Venus-Rad-CAAX (WT Rad with a C-terminal CAAX motif) (from UniProt O88667) F280A; F294A”: the dissociation constant (Kd) in assay [1] (+ FSK + Cal) was 21 ×10^3; in assay [1] (no FSK + Cal), 13 ×10^3.
As to “Venus-tagged WT Rad (from UniProt O88667) S272D; S300D”, the dissociation constant (Kd) in assay [1] (no FSK/Cal, parent: est. 7.8) was 18 ×10^3.
